Laboratory results: the DeepSol protein solubility set

experiment: soluble on expression in E. coli; label from the status in PepcDB or PDB records

Sequence	soluble on expression in E. coli
PKVSVIMTSYNKSDYVAKSISSILSQTFSDFELFIMDDNSNEETLNVIRPFLNDNRVRFYQSDISGVKERTEKTRYAALINQAIEMAEGEYITYATDDNIYMPDRLLKMVRELDTHPEKAVIYSASKTYHLNENRDIVKETVRPAAQVTWNAPCAIDHCSVMHRYSVLEKVKEKFGSYWDESPAFYRIGDARFFWRVNHFYPFYPLDEELDLNYITDQSIHFQLFELEKNEFVRNLPPQRNCRELRESLKKLGMG	soluble
MSLYLITNRKLCSEERYLEVIKESILSGVENIIIREKDLEYQELRKLYMKIKTKINCIDFQEQISDESLKTNINQKECRNKFKVNFIINSNIEFFEKVDCQGIHLPFKLFLNLIENKYNFNENKILGLSLHKVEEVDYLEKLIRNQNIKIDYITLSHIYETKCKEGLNPKGIELLKEAKKITDIKIIALGGILPSNVKETLKYCDDFAIMSTIMRSKDIKKTISNYNEKLNEGHHHHHH	not soluble
GSHMRTIIALETHDVRFPTSRELDGSDAMNPDPDYSAAYVVLRTDGAEDLAGYGLVFTIGRGNDVQTAAVAALAEHVVGLSVDKVIADLGAFARRLTNDSQLRWLGPEKGVMHMAIGAVINAAWDLAARAANKPLWRFIAELTPEQLVDTIDFRYLSDALTRDEALAILRDAQPQRAARTATLIEQGYPAYTTSPGWLGYSDEKLVRLAKEAVADGFRTIKLKVGANVQDDIRRCRLARAAIGPDIAMAVDANQRWDVGPAIDWMRQLAEFDIAWIEEPTSPDDVLGHAAIRQGITPVPVSTGEHTQNRVVFKQLLQAGAVDLIQIDAARVGGVNENLAILLLAAKFGVRVFPHAGGVGLCELVQHLAMADFVAITGKMEDRAIEFVDHLHQHFLDPVRIQHGRYLAPEVPGFSAEMHPASIAEFSYPDGRFWVEDLAASKAKA	soluble
SAPVEHVVADAGAFLRHAALQDIGKNIYTIREVVTEIRDKATRRRLAVLPYELRFKEPLPEYVRLVTEFSKKTGDYPSLSATDIQVLALTYQLEAEFVGVSHLKQEPQKVKVSSSIQHPETPLHISGFHLPYKPKPPQETEKGHSACEPENLEFSSFMFWRNPLPNIDHELQELLIDRGEDVPSEEEEEEENGFEDRKDDSDDDGGGWITPSNIKQIQQELEQCDVPEDVRVGCLTTDFAMQNVLLQMGLHVLAVNGMLIREARSYILRCHGCFKTTSDMSRVFCSHCGNKTLKKVSVTVSDDGTLHMHFSRNPKVLNPRGLRYSLPTPKGGKYAINPHLTEDQRFPQLRLSQKARQKTNVFAPDYIAGVSPFVENDISSRSATLQVRDSTLGAGRRRLNPNASRKKFVKKR	soluble
GMKKIRFAAIGLAHNHIYDMCQQLIDAGAELAGVFESDSDNRAKFTSLFPSVPFAASAEQLITDASIDLIACAVIPCDRAELALRTLDAGKDFFTAKPPLTTLEQLDAVQRRVAETGRKFAVYFNERINVDSALFAGELVQRGEIGRVIQTMGVGPHRERGARPDWFYQKRQYGGILCDIGIHQIEQFLYFTGNTNARVVTSQTANYHHPHHPEFEDFGDAMLLGDNGATGYFRCDWFTPDGLSVWGDGRLTILGTEGYIEIRKYVDLTRGESNVVYLVNGKGEQRFTPAGSVERAFFPDFLRDCRERTENAMSQSHIFKATELSILAQQAANKIA	soluble
LLSPPIALKPLDSSAKWRIIYWNPNGCDKTCLKQLNMLGRVRLSFGRKLYQVDEWLLLSNKDSLIAEELKPILKEQDIHVAALSLTEMSKLSTLYPEAKIFIANPDNYLILSYQPGCNPGDIYKDLKLLLNTTE	not soluble
MSLSNAVRITALHTRLARIPLPRPLKTSIHEIADVCCLLVSLETDAGVTGEGYGFCFNADRLGAIAQFTQSLAPLVVGRDPHDVEALWTDFLRGCNFYGQSGVSILAYNPIDIACWDIVGKLAGRPLYKLFGAHRERVPVYASAGLWLSSSRDELRDEARQFLAQGFKAMKMRLGSPDWKEDIARVEVVRDAIGEQVTLMADANQGLDLTRALRLGRELARFDLAWFEEPVPTWDDDSAAEIVRRLPMPIASGETEYTRYGIRRMARERAAGVFMPDLQRMGGYTEMLKAVRYLAAHDLPVAPHIFTEHSLHIVAAAGNATWAEHMPWFEPLFHERMEIGADGCIAAPDRPGTGFTFDWQRIDPYLISPRTAGGSEGHHHHHH	soluble
MAFELPALPYAKDALEPHISAETLDFHHGKHHNTYVVKLNGLIPGTEFENKSLEEIIKTSTGGIFNNAAQVWNHTFYWHCLSPNGGGEPTGAVAEAINAAFGSFADFKAKFTDSAINNFGSSWTWLVKKADGTLAITNTSNAATPLTEEGVTPLLTVDLWEHAYYIDYRNVRPDYMNGFWALVNWDFVAQNLAK	not soluble
